Assay results from article PMC5021340.

Biological target: Mig1 (Xanthophyllomyces dendrorhous) (UniProt A0A1C9UL02)
Test: EMSA
Settings: 20 mM HEPES pH 7.9, 50 mM KCl, 1 mM DTT, 0.1 mM EDTA, 5% glycerol (+2.5%), 200 ug/ml BSA, 50 ng/ul poly(dI-dC), 0.05% NP-40, 20 fmol DNA, 10 ug Mig1 in 20 ul …

Sequence of Mig1 (Xanthophyllomyces dendrorhous) (A0A1C9UL02 entry or part of it): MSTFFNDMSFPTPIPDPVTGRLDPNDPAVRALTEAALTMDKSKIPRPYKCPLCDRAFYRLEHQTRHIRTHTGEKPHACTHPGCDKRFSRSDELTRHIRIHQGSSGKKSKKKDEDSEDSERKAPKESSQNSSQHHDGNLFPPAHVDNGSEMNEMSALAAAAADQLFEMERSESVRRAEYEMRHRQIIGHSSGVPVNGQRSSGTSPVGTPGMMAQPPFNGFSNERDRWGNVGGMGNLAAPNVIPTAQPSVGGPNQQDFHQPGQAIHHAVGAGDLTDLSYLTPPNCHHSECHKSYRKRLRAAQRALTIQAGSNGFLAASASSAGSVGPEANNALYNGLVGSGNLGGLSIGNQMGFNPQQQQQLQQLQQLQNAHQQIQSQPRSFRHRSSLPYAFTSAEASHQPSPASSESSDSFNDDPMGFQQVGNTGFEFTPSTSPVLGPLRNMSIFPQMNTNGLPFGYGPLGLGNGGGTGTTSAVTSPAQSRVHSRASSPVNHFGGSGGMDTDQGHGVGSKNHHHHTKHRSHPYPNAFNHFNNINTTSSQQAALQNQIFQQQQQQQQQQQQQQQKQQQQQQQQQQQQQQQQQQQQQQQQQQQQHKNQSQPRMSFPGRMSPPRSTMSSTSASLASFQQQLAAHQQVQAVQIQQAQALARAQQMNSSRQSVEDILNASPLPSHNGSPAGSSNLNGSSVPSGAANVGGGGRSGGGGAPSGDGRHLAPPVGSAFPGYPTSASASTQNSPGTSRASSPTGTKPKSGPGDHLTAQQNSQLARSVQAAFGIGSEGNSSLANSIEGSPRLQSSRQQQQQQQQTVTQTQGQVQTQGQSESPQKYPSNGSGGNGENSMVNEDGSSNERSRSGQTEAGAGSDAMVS

GAAGATGATGCGGCGGCAACTGGTTCTGGGCTGGGGAACACCCTATTCGACCGGTTGAATGAGTCACAATCGGCCGGCAGCCCTGCTGCAGGCACCGGCGCAAGTGGCTCCGGACCGAAGCCTCGCCAGCAGTTGATCAAGCGAACCAAGCCGAACAATCCTGGCGCGCCTGGAGGAGCGGGAGCGGGAGGAGCAGCAGGTGATGCATC (double strand) [crtS promoter boxes C-D 209 bp]
binding: binds
